From publication PMC6601351 (Structure (London, England : 1993), 2018)

Molecular target: PP1γ_(7–300) (human, UniProt P36873 7-300)
Test: ITC

Sequence of PP1γ_(7–300) (P36873 7-300): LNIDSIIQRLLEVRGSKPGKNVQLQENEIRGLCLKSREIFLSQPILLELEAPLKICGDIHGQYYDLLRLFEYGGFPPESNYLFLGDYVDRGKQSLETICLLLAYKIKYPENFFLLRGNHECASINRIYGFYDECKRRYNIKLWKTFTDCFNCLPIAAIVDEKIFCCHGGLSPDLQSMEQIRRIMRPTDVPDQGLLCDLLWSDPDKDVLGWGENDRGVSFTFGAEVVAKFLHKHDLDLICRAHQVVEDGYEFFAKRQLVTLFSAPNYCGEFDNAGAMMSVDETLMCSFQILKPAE

Kd | dH | Molecule
82 nM | -28.3 kcal/mol | KNL1_(23–80) (domain or fragment, human, UniProt Q8NG31 23-80, looked up) HSSILKPPRSPLQDLRGGNERVQESNALRNKKNSRRVSFADTIKVFQTESHMKIVRKS

Molecular target: PP1γ_(7–323) (human, UniProt P36873 7-323)
Test: ITC

Sequence of PP1γ_(7–323) (P36873 7-323): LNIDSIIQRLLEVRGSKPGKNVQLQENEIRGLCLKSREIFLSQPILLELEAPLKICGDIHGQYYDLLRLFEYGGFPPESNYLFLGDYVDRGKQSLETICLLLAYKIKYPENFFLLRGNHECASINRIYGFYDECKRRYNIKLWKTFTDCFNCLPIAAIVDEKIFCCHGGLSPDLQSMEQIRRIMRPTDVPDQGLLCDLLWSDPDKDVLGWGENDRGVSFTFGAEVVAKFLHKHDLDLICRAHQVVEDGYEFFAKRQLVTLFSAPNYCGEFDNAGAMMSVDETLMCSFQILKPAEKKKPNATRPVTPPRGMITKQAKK

Kd | dH | Molecule
38.3 nM | -8.6 kcal/mol | KNL1_(1–80) (domain or fragment, human, UniProt Q8NG31 1-80, looked up) MDGVSSEANEENDNIERPVRRRHSSILKPPRSPLQDLRGGNERVQESNALRNKKNSRRVSFADTIKVFQTESHMKIVRKS
55.2 nM | -9.3 kcal/mol | KNL1_(1–150) (domain or fragment, human, UniProt Q8NG31 1-150, looked up) MDGVSSEANEENDNIERPVRRRHSSILKPPRSPLQDLRGGNERVQESNALRNKKNSRRVSFADTIKVFQTESHMKIVRKSEMEGCSAMVPSQLQLLPPGFKRFSCLSLPETETGENLLLIQNKKLEDNYCEITGMNTLLSAPIHTQMQQK
52.4 nM | -10 kcal/mol | KNL1_(23–80) (domain or fragment, human, UniProt Q8NG31 23-80, looked up) HSSILKPPRSPLQDLRGGNERVQESNALRNKKNSRRVSFADTIKVFQTESHMKIVRKS

Molecular target: PP1α_(7–330) (human) (UniProt P62136)
Test: ITC

Kd | dH | Molecule
46.4 nM | -22.6 kcal/mol | KNL1_(1–80) (from UniProt Q8NG31 1-80) (domain or fragment)
93.5 nM | -21.5 kcal/mol | KNL1_(1–80)S24AS25A (from UniProt Q8NG31 1-80) (domain or fragment)
267 nM | -10.9 kcal/mol | KNL1_(1–80)S24DS25D (from UniProt Q8NG31 1-80) (domain or fragment)
14.7 nM | -12.4 kcal/mol | KNL1_(1–80)S56D (from UniProt Q8NG31 1-80) (domain or fragment)
154 nM | -20.1 kcal/mol | KNL1_(1–80)S60A (from UniProt Q8NG31 1-80) (domain or fragment)
236 nM | -30.7 kcal/mol | KNL1_(1–80)S60D (from UniProt Q8NG31 1-80) (domain or fragment)
228 nM | -21.5 kcal/mol | KNL1_(1–80)SILK/AAAA (SILK_(dead)) (from UniProt Q8NG31 1-80) (domain or fragment)
89 nM | -13.7 kcal/mol | KNL1_(23–80) (from UniProt Q8NG31 23-80) (domain or fragment)
